One block for each substance: values may come before it.
Columns and labels:
[1] = target: fibrin (fibrinogen dried on microtiter wells and converted with thrombin); experiment: direct ELISA on fibrin-coated wells, reference intact fibronectin
[2] = target: fibrin (fibrinogen dried on microtiter wells and converted with thrombin); experiment: competition on fibrin-coated wells, competitor 125I-11 kDa (90 nM)
[3] = target: fibrin (fibrinogen dried on microtiter wells and converted with thrombin); experiment: displacement of bound 125I-11 kDa from fibrin-coated wells by 2,000 nM unlabeled 11 kDa
[4] = target: fibrinogen-SEPHAROSE; experiment: binding to a fibrinogen-SEPHAROSE column at 37° C. (material eluted with ethylene glycol)
[5] = target: fibrin (fibrinogen dried on microtiter wells and converted with thrombin); experiment: competitive ELISA on fibrin-coated wells, reference intact Fn
[6] = target: fibrin (fibrinogen dried on microtiter wells and converted with thrombin); experiment: competitive ELISA on fibrin-coated wells, competitor biotinylated Fn (2.3 nM)
[7] = target: fibrin (fibrinogen dried on microtiter wells and converted with thrombin); experiment: competitive ELISA on fibrin-coated wells, Cheng and Prussoff equation from the IC50
[8] = target: fibrin (fibrinogen dried on microtiter wells and converted with thrombin); experiment: competitive ELISA on fibrin-coated wells, competitor biotinylated Fn (2.3 nM), 10 µM of the fragment
[9] = target: fibrin-SEPHAROSE (bovine fibrinogen cross-linked to CNBr-activated SEPHAROSE and converted to fibrin with human thrombin) (bovine) (UniProt P02672); experiment: fibrin-SEPHAROSE chromatography of 35S-labeled COS supernatant, densitometry of the autoradiogram
[10] = target: fibrin (fibrinogen dried on microtiter wells and converted with thrombin); experiment: direct binding of 125I-11 kDa to fibrin-coated wells (15 ng fibrin)
[11] = target: fibrin (fibrinogen dried on microtiter wells and converted with thrombin); experiment: direct binding of 125I-11 kDa to fibrin-coated removable wells, non-linear regression, one binding site model
[12] = target: fibrin (fibrinogen dried on microtiter wells and converted with thrombin); experiment: direct ELISA on fibrin-coated wells (FIGS. 27A and 28A)
[13] = target: fibrin (fibrinogen dried on microtiter wells and converted with thrombin); experiment: direct ELISA on fibrin-coated plates (FIG. 27A)
[14] = target: fibrin (fibrinogen dried on microtiter wells and converted with thrombin); experiment: competitive ELISA against intact Fn on fibrin
[15] = target: fibrin (fibrinogen dried on microtiter wells and converted with thrombin); experiment: competitive ELISA on fibrin-coated plates, competitor Fn (2.3 nM)
[16] = target: fibrin (fibrinogen dried on microtiter wells and converted with thrombin); experiment: competitive ELISA on fibrin-coated wells, competitor fibronectin (FIG. 29)
[17] = target: fibrin (fibrinogen dried on microtiter wells and converted with thrombin); experiment: competitive ELISA on fibrin-coated wells, competitor biotinylated Fn (FIG. 29)
[18] = target: fibrin (fibrinogen dried on microtiter wells and converted with thrombin); experiment: competitive ELISA on fibrin-coated wells, competitor biotinylated Fn (2.3 nM), 10 µM of the module pair
[19] = target: fibrin (fibrinogen dried on microtiter wells and converted with thrombin); experiment: competitive ELISA on fibrin-coated plates, competitor Fn (2.3 nM), 50,000 molar excess

Substance: ^35 S-methionine labeled recombinant ^10 F1-end (expressed in COS cells) (peptide)
% of bound protein released by warming to 22° C. [9]: 35%
% of bound protein that required 6M urea for elution [9]: 65%

Substance: ^125 I-11 kDa fibrin-binding peptide
concentration at 50% saturation [10]: 90 nM
Kd [11]: 154 nM

Substance: biotinylated fibronectin
concentration at saturation of binding [12]: 4.5 nM

Substance: recombinant ^4 F1.^5 F1 module pair of fibronectin (expressed in Saccharomyces cerevisiae) (peptide)
% inhibition (so in the source) [14]: 30%
% inhibition of Fn binding at saturating concentration [15]: 70%
IC50 [15]: 750 nM
concentration at maximum inhibition [15]: 10 µM
% blocking of fibronectin binding [16]: 36%
IC50 [6]: 700 nM
maximum % inhibition of Fn binding [17]: 67%
Ki [7]: 695 nM
maximal % inhibition of biotinylated Fn binding [18]: 67%

Now from value to substance:

times more bound than intact fibronectin (mole-per-mole) [1]: 20 times
IC50 [2]: 605 nM
concentration at maximum inhibition [2]: 4 µM
% of bound iodinated 11 kDa displaced [3]: 42%
% of the applied material bound [4]: 4 to 5%
Substance: 11 kDa C-terminal fibrin-binding fragment of fibronectin (peptide)

fold higher concentration than intact Fn for 50% inhibition [5]: 7.5 fold
IC50 [6]: 150 nM
Ki [7]: 145 nM
maximal % inhibition of biotinylated Fn binding [8]: 75%
Substance: 25.9 kDa N-terminal proteolytic fibrin-binding fragment of fibronectin (peptide)

concentration at 75% of the maximum binding [13]: 2.3 nM
concentration at saturation of binding [13]: 4.54 nM
IC50 [6]: 20 nM
concentration for complete inhibition [6]: 2.2 µM
Substance: human plasma fibronectin (intact)

% inhibition of Fn binding [19]: < 20%
Substance: recombinant ^7 F1 module of fibronectin (peptide)

% inhibition of biotinylated Fn binding [6]: 10%
Substance: recombinant ^10 F1 module of fibronectin (peptide)

From patent US5792742
